# How the values were obtained:
# human iPSC-CFs = assay: In vitro wound-healing assay, iPSC-CFs; type: cell-based; conditions: 25 ng/ml, 24-hour observation
# Method: In vitro wound-healing assay. The migration of human iPSC-CFs and primary CFs was determined using a Cytoselect™ 24-Well Wound Healing Assay Kit (CBA-120, Cell Biolabs). Briefly, after confluent monolayers of CFs were formed, cells were synchronized in a low serum medium (0.5% FBS) for 24 hrs. After the wound-generating scaffold was removed from each well, cells were washed in PBS to remove residual cells in the wounded area. Cells were treated with vehicle or PDGF-BB (25 ng/ml), and images were captured using a light microscope in identical areas at baseline, 12 hrs, and 24 hrs post-treatment. The cell-free areas at each time point were measured by Image-Pro Plus (version 6.0, Media Cybernetics). For quantification purposes, the wound area generated at 0 hr was set as S0, the uncovered areas captured at 12 hrs, and 24 hrs were recorded as Si (i=12 or 24). The wound closure rate was then calculated by the following equation: wound closure rate
# primary CFs = assay: In vitro wound-healing assay, primary CFs; type: cell-based, human; conditions: 25 ng/ml, 24-hour observation
# Method: Human primary skin, cardiac, lung, bladder fibroblast, and brain pericyte cultures. Human primary cardiac fibroblasts were isolated and cultured as follows: a piece of fresh right atrial biopsy was weighed, minced into small pieces (1-2 mm^3), and digested in 6-well peri-dishes as described. Human primary cardiac fibroblasts were grown and maintained in a fibroblast growth medium (C-23025, Promocell) supplemented with 1% penicillin-streptomycin (15140-122, Gibco) in a humidified atmosphere (95% air, 5% CO2) at 37° C. The medium was renewed every 2-3 days. Cells were passaged using standard trypsinization techniques at 80-90% confluency. The same protocol was also used to isolate and culture fibroblasts from human skin and lung tissues. Primary bladder fibroblasts were purchased from Lifeline (FC-0050) and maintained in the same fibroblast growth medium. […]
# In vitro wound-healing assay. The migration of human iPSC-CFs and primary CFs was determined using a Cytoselect™ 24-Well Wound Healing Assay Kit (CBA-120, Cell Biolabs). […] The cell-free areas at each time point were measured by Image-Pro Plus (version 6.0, Media Cybernetics). For quantification purposes, the wound area generated at 0 hr was set as S0, the uncovered areas captured at 12 hrs, and 24 hrs were recorded as Si (i=12 or 24). The wound closure rate was then calculated by the following equation: wound closure rate
molecule,measurement,setting,value
"platelet derived growth factor-BB: platelet derived growth factor-BB, migration stimulus (protein, UniProt P01127 82-190, looked up) Platelet-derived growth …: SLGSLTIAEPAMIAECKTRTEVFEISRRLIDRTNANFLVWPPCVEVQRCSGCCNNRNVQCRPTQVQLRPVQVRKIEIVRKKPIFKKATVTLEDHLACKCETVAAARPVT",cell migration (wound closure),human iPSC-CFs,induced cell migration
same,cell migration (wound closure),primary CFs,induced cell migration
